Reference: PMC10786891, “Massively parallel profiling of RNA-targeting CRISPR-Cas13d”
Where a chain is given by its changes, count along the chain named. Names may count otherwise.

T1: EsCas13d, nuclease-dead (Eubacterium siraeum, UniProt B0MS50, R295A;H300A;R849A;H854A)
T1 sequence: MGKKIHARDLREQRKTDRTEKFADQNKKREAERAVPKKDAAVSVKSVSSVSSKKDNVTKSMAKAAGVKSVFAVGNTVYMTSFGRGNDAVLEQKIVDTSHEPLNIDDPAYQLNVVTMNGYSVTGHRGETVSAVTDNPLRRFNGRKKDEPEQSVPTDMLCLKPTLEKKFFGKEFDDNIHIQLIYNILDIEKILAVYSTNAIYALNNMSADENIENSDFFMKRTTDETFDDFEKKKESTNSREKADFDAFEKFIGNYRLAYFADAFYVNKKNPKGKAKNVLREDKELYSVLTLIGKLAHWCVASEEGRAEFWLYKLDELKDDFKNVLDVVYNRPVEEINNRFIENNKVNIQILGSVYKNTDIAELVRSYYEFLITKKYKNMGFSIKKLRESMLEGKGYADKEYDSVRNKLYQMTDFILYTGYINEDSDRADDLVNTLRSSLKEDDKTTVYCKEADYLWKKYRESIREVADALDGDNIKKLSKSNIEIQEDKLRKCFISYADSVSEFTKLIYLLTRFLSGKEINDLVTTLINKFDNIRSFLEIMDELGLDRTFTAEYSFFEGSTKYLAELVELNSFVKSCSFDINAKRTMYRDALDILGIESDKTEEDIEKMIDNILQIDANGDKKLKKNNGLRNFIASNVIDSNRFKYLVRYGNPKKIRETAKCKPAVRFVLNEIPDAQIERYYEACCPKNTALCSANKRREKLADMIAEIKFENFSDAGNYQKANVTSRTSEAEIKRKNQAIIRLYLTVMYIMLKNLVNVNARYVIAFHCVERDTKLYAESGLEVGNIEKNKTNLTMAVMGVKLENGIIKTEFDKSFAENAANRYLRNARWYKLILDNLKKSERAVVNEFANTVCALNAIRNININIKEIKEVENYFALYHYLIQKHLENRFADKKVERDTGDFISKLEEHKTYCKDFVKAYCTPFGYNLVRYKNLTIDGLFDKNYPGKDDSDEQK

B1: target 1 C6G,A14U (mixed)
RNA 1: CACCCGUGCAAAAAUGCAGGGGUCUAAAACUGAGCGGAUAACCUCUCUAUGG
RNA 2: GGGAAUGGAUCCACAUCUACGAAUUCGUACCAUAGAGUGGUUAUCGGCUCACCGAGAUCGGAAGAGCACACGU
B2: target 1 insU 3' of 20,insA 3' of 17 (mixed)
RNA 1: B1 RNA 1
RNA 2: GGGAAUGGAUCCACAUCUACGAAUUCGUACCAUUAGAAGAGGUUAUCCGCUCACCGAGAUCGGAAGAGCACACGU
B3: target 1 insC 3' of 22,insU 3' of 4 (mixed)
RNA 1: B1 RNA 1
RNA 2: GGGAAUGGAUCCACAUCUACGAAUUCGUACCCAUAGAGAGGUUAUCCGCUUCACCGAGAUCGGAAGAGCACACGU
B4: target 2 MT 5'PFS CUU 3'PFS UGA (mixed)
RNA 1: CACCCGUGCAAAAUUGCAGGGGUCUAAAACCUUCUCCAAAUUGUUUCAUCCU
RNA 2: GGGAAUGGAUCCACAUCUACGAAUUCCUUAGGAUGAAACAAUUUGGAGAAGUGAAGAUCGGAAGAGCACACGU
B5: target 2 MT 5'PFS AGA 3'PFS CUU (mixed)
RNA 1: B4 RNA 1
RNA 2: B4 RNA 2 with C27A, U28G, U29A, U52C, G53U, A54U
B6: target 2 MT 5'PFS GCC 3'PFS CAA (mixed)
RNA 1: B4 RNA 1
RNA 2: B4 RNA 2 with C27G, U28C, U29C, U52C, G53A
B7: target 2 MT 5'PFS GAG 3'PFS AUC (mixed)
RNA 1: B4 RNA 1
RNA 2: B4 RNA 2 with C27G, U28A, U29G, U52A, G53U, A54C
B8: target 2 MT 5'PFS GUG 3'PFS CAA (mixed)
RNA 1: B4 RNA 1
RNA 2: B4 RNA 2 with C27G, U29G, U52C, G53A
B9: target 2 MT 5'PFS GUC 3'PFS AAA (mixed)
RNA 1: B4 RNA 1
RNA 2: B4 RNA 2 with C27G, U29C, U52A, G53A
B10: target 2 MT 5'PFS ACU 3'PFS CAU (mixed)
RNA 1: B4 RNA 1
RNA 2: B4 RNA 2 with C27A, U28C, U52C, G53A, A54U
B11: target 2 MT 5'PFS GCA 3'PFS CAU (mixed)
RNA 1: B4 RNA 1
RNA 2: B4 RNA 2 with C27G, U28C, U29A, U52C, G53A, A54U
B12: target 2 MT 5'PFS UGU 3'PFS AGU (mixed)
RNA 1: B4 RNA 1
RNA 2: B4 RNA 2 with C27U, U28G, U52A, A54U
B13: target 2 MT 5'PFS AUA 3'PFS AGA (mixed)
RNA 1: B4 RNA 1
RNA 2: B4 RNA 2 with C27A, U29A, U52A
B14: target 2 MT 5'PFS GUC 3'PFS AAG (mixed)
RNA 1: B4 RNA 1
RNA 2: B4 RNA 2 with C27G, U29C, U52A, G53A, A54G
B15: target 2 MT 5'PFS GAC 3'PFS CUC (mixed)
RNA 1: B4 RNA 1
RNA 2: B4 RNA 2 with C27G, U28A, U29C, U52C, G53U, A54C
B16: target 2 MT 5'PFS AUA 3'PFS AGU (mixed)
RNA 1: B4 RNA 1
RNA 2: B4 RNA 2 with C27A, U29A, U52A, A54U
B17: target 2 MT 5'PFS CUG 3'PFS CGG (mixed)
RNA 1: B4 RNA 1
RNA 2: B4 RNA 2 with U29G, U52C, A54G
B18: target 2 MT 5'PFS GCA 3'PFS CAG (mixed)
RNA 1: B4 RNA 1
RNA 2: B4 RNA 2 with C27G, U28C, U29A, U52C, G53A, A54G
B19: target 2 MT 5'PFS GCC 3'PFS CAC (mixed)
RNA 1: B4 RNA 1
RNA 2: B4 RNA 2 with C27G, U28C, U29C, U52C, G53A, A54C
B20: target 2 MT 5'PFS GAG 3'PFS AUU (mixed)
RNA 1: B4 RNA 1
RNA 2: B4 RNA 2 with C27G, U28A, U29G, U52A, G53U, A54U
B21: target 2 MT 5'PFS CUG 3'PFS CGA (mixed)
RNA 1: B4 RNA 1
RNA 2: B4 RNA 2 with U29G, U52C
B22: target 2 MT 5'PFS GCC 3'PFS CAU (mixed)
RNA 1: B4 RNA 1
RNA 2: B4 RNA 2 with C27G, U28C, U29C, U52C, G53A, A54U
B23: target 2 MT 5'PFS GAC 3'PFS CUU (mixed)
RNA 1: B4 RNA 1
RNA 2: B4 RNA 2 with C27G, U28A, U29C, U52C, G53U, A54U
B24: target 2 MT 5'PFS AGA 3'PFS CUA (mixed)
RNA 1: B4 RNA 1
RNA 2: B4 RNA 2 with C27A, U28G, U29A, U52C, G53U
B25: target 2 MT 5'PFS GCA 3'PFS CAC (mixed)
RNA 1: B4 RNA 1
RNA 2: B4 RNA 2 with C27G, U28C, U29A, U52C, G53A, A54C
B26: target 2 MT 5'PFS CGA 3'PFS UGC (mixed)
RNA 1: B4 RNA 1
RNA 2: B4 RNA 2 with U28G, U29A, A54C
B27: target 2 MT 5'PFS AGA 3'PFS CUG (mixed)
RNA 1: B4 RNA 1
RNA 2: B4 RNA 2 with C27A, U28G, U29A, U52C, G53U, A54G
B28: target 2 MT 5'PFS CUU 3'PFS UGC (mixed)
RNA 1: B4 RNA 1
RNA 2: B4 RNA 2 with A54C
B29: target 2 MT 5'PFS GUC 3'PFS CCG (mixed)
RNA 1: B4 RNA 1
RNA 2: B4 RNA 2 with C27G, U29C, U52C, G53C, A54G
B30: target 2 MT 5'PFS GCC 3'PFS CAG (mixed)
RNA 1: B4 RNA 1
RNA 2: B4 RNA 2 with C27G, U28C, U29C, U52C, G53A, A54G
B31: target 2 MT 5'PFS GUC 3'PFS AAC (mixed)
RNA 1: B4 RNA 1
RNA 2: B4 RNA 2 with C27G, U29C, U52A, G53A, A54C
B32: target 2 MT 5'PFS AGA 3'PFS CUC (mixed)
RNA 1: B4 RNA 1
RNA 2: B4 RNA 2 with C27A, U28G, U29A, U52C, G53U, A54C
B33: target 2 MT 5'PFS GCC 3'PFS UUU (mixed)
RNA 1: B4 RNA 1
RNA 2: B4 RNA 2 with C27G, U28C, U29C, G53U, A54U
B34: target 2 MT 5'PFS GCA 3'PFS CAA (mixed)
RNA 1: B4 RNA 1
RNA 2: B4 RNA 2 with C27G, U28C, U29A, U52C, G53A
B35: target 2 MT 5'PFS CUG 3'PFS CGU (mixed)
RNA 1: B4 RNA 1
RNA 2: B4 RNA 2 with U29G, U52C, A54U
B36: target 2 MT 5'PFS AUA 3'PFS AGG (mixed)
RNA 1: B4 RNA 1
RNA 2: B4 RNA 2 with C27A, U29A, U52A, A54G
B37: target 2 MT 5'PFS UGU 3'PFS AGC (mixed)
RNA 1: B4 RNA 1
RNA 2: B4 RNA 2 with C27U, U28G, U52A, A54C
B38: target 2 MT 5'PFS GAG 3'PFS AUA (mixed)
RNA 1: B4 RNA 1
RNA 2: B4 RNA 2 with C27G, U28A, U29G, U52A, G53U

What follows are binders tested against T1, EsCas13d, nuclease-dead (assay: crRNA (strand 1, pre-loaded); Mg2+; 40 mM Tris-HCl pH 7.5, 150 mM NaCl, 6 mM MgCl2, 1 mM DTT, 0.1% Tween-20, 0.2 mg/ml BSA; 25 C; 10 min per concentration, then washed). Conditions: tags: His6-TwinStrep-SUMO cleaved; N-terminal SNAP kept (SNAP-Surface 488); label: 3' end held by stalled T7 RNA polymerase.

Binder | Kd
B1 | 41 ± 14 nM
B2 | 27.3 ± 2.4 nM
B3 | 15.1 ± 1.6 nM
B4 | 6.5 ± 2 nM
B5 | 8.4 ± 1.2 nM
B6 | ~27 nM
B7 | 9.9 ± 1.4 nM
B8 | 6.8 ± 0.6 nM
B9 | 8.8 ± 1.5 nM
B10 | 3.1 ± 0.5 nM
B11 | 8.8 ± 1.8 nM
B12 | 14.8 ± 2.4 nM
B13 | 6.1 ± 1.1 nM
B14 | 16.8 ± 3.5 nM
B15 | 12.1 ± 1.3 nM
B16 | 26 ± 6 nM
B17 | 2.31 ± 0.31 nM
B18 | 7.9 ± 1.5 nM
B19 | 13 ± 1.7 nM

Binder | Kd
B20 | 5.6 ± 0.4 nM
B21 | 3.4 ± 0.6 nM
B22 | 14 ± 4 nM
B23 | 12.5 ± 1.3 nM
B24 | 7.6 ± 1.4 nM
B25 | 7.5 ± 1 nM
B26 | 6.8 ± 1.5 nM
B27 | 5.9 ± 1.1 nM
B28 | 4.5 ± 0.9 nM
B29 | 14.9 ± 1 nM
B30 | 9.4 ± 0.8 nM
B31 | 9.7 ± 1.5 nM
B32 | 11.7 ± 1.9 nM
B33 | 41 ± 11 nM
B34 | 7.7 ± 1.1 nM
B35 | 3.9 ± 0.6 nM
B36 | 7.6 ± 1.1 nM
B37 | 12.5 ± 2.1 nM
B38 | 4.8 ± 0.5 nM
